Assay results: patent US20260174822A1

Biological target: GLP-1R on GeneBLAzer GLP-1R-CRE-bla CHO-K1 cells
Assay: cell-based or functional assay

Row | EC50 of GLP-1R activation (460/530 ratio, GeneBLAzer GLP-1R-CRE-bla CHO-K1 reporter cells) [nM] | Substance
1 | 35.9 | GLP-1-RFRS-His protein (peptide)
2 | 192 | GLP-1-His protein (peptide)
